Assay results as given in article PMC3299731 (PLoS ONE, 2012).
Changes are numbered by the printed parent chain.

B1: Mutant of basic-2 motif of human translin, homomeric, N-terminal 6×His tag (natural protein, UniProt Q15631 1-228, looked up)
chain: MSVSEIFVELQGFLAAEQDIREEIRKVVQSLEQTAREILTLLQGVHQGAGFQDIPKRCLKAREHFGTVKTHLTSLKTKFPAEQYYTFNENWRFVLQRLVFLAAFVVYLETETLVTREAVTEILGIEPDREKGFHLDVEDYLSGVLILASELSRLSVNSVTAGDYSRPLHISTFINELDSGFRLLNLKNDSLRKRYDGLKYDVKKVEEVVYDLSIRGFNKETAAACVEK
notes: human translin with the B2 motif mutated, expressed from pQE9-translinB2; also called translinB2; translinB2 mutant; source: E. coli BL21(DE3), pQE9-translinB2, purified (Ni-IDA, Q-sepharose, Superdex 200); not shown: 6×His, N-terminal, kept
B2: Mutant of basic-3 motif of human translin, homomeric, N-terminal 6×His tag (natural protein, UniProt Q15631 1-228, looked up)
chain: B1 chain with T86R, N88H, N90H, R192T, K193N, R194S, Y195N
notes: human translin with the B3 motif mutated, expressed from pQE9-translinB3; also called translinB3; translinB3 mutant; source: E. coli BL21(DE3), pQE9-translinB3, purified (Ni-IDA, Q-sepharose, Superdex 200); not shown: 6×His, N-terminal, kept

Key:
[1] = target: T1, translin (human, UniProt Q15631 1-228); test: UV-laser crosslinking (248 nm); 50 pmol each in 50 uL; 25 mM Tris-HCl pH 8.0, 100 mM NaCl, 1 mM EDTA, 30 min; temperature not stated; 4.5% native PAGE in 0.5x TBE; conditions: protein: recombinant; tags: N-terminal 6xHis; chain copies: 8; label: 5'-32P (unlabeled in agarose EMSA)
[2] = target: T1, translin; test: EMSA; 50 nM octamer, 100 nM DNA; 25 mM Tris-HCl pH 8.0, 100 mM NaCl, 1 mM EDTA, 30 min; temperature not stated; 4.5% native PAGE in 0.5x TBE; conditions: protein: recombinant; tags: N-terminal 6xHis; chain copies: 8; label: 5'-32P (unlabeled in agarose EMSA)
[3] = target: the molecule itself; test: SEC; purified homomeric 6×His-translin proteins on Superdex 200 10/300 GL calibrated with molecular weight markers (29-440 kDa); octamer

Binder | binding result [1] | binding result [2] | stoichiometry N [3]
GCCCTCCTGCCCTCCTTCCGCGGG (ssDNA) [Bcl-CL1 24-mer] | binds | binds | –
B1 | – | – | 8
B2 | – | – | 8
